Read-outs that look alike come from different tables or passages of the source.
Columns and labels:
Assay in all cases: AUC
[1] = molecular target: wild-type, full length HIV-1 capsid protein (CAFL, residues 1-231) (HIV-1) (UniProt P12493)
[2] = molecular target: HIV-1 capsid C-terminal domain construct CA144-231 (HIV-1) (UniProt P12493)
[3] = molecular target: HIV-1 capsid C-terminal domain construct CA146-231 (HIV-1) (UniProt P12493)
[4] = molecular target: HIV-1 capsid C-terminal domain construct CA146-231 (HIV-1) (UniProt P12493); remark: listed apart in the source

With “wild-type, full length HIV-1 capsid protein (CAFL, residues 1-231) (from UniProt P12493) (natural protein)” the Kd [1] was 20 µM.
Work on “HIV-1 capsid C-terminal domain construct CA144-231 (from UniProt P12493 276-363) (domain or fragment)” yielded a Kd [2] of 16 µM.
For “HIV-1 capsid C-terminal domain construct CA146-231 (from UniProt P12493 278-363) (domain or fragment)”, the Kd [3] was 23 µM and the Kd [4] was 24 µM.

Reference: article PMC3946434
